# Laboratory results taken from IntAct's records for PubMed 26307080.
# B1: Protein phosphatase 1 regulatory subunit 15B (Homo sapiens), Q5SWA1 (parent)
# chain: MEPGTGGSRKRLGPRAGFRFWPPFFPRRSQAGSSKFPTPLGPENSGNPTLLSSAQPETRVSYWTKLLSQLLAPLPGLLQKVLIWSQLFGGMFPTRWLDFAGVYSALRALKGREKPAAPTAQKSLSSLQLDSSDPSVTSPLDWLEEGIHWQYSPPDLKLELKAKGSALDPAAQAFLLEQQLWGVELLPSSLQSRLYSNRELGSSPSGPLNIQRIDNFSVVSYLLNPSYLDCFPRLEVSYQNSDGNSEVVGFQTLTPESSCLREDHCHPQPLSAELIPASWQGCPPLSTEGLPEIHHLRMKRLEFLQQASKGQDLPTPDQDNGYHSLEEEHSLLRMDPKHCRDNPTQFVPAAGDIPGNTQESTEEKIELLTTEVPLALEEESPSEGCPSSEIPMEKEPGEGRISVVDYSYLEGDLPISARPACSNKLIDYILGGASSDLETSSDPEGEDWDEEAEDDGFDSDSSLSDSDLEQDPEGLHLWNSFCSVDPYNPQNFTATIQTAARIVPEEPSDSEKDLSGKSDLENSSQSGSLPETPEHSSGEEDDWESSADEAESLKLWNSFCNSDDPYNPLNFKAPFQTSGENEKGCRDSKTPSESIVAISECHTLLSCKVQLLGSQESECPDSVQRDVLSGGRHTHVKRKKVTFLEEVTEYYISGDEDRKGPWEEFARDGCRFQKRIQETEDAIGYCLTFEHRERMFNRLQGTCFKGLNVLKQC
# Variants of: B1
# Conditions: with pp1g_human PPP1CC
row,Variant,effect of a mutation on the interaction
1,R658C,decreasing interaction strength

# Variants of: B1
# Conditions: with pp1g_human PPP1CC
# Remark: another data set of the same source
row,Variant,effect of a mutation on the interaction
1,R658C,disrupting interaction strength
